From patent US20220041702A1 (Innovent, published 2022)
Each block holds one binder with its values, some of them ahead of it.

Assays:
[1] = molecular target: T1, GITR expressed on cell surface (CHO cells overexpressing GITR) (Homo sapiens (Human), UniProt Q9Y5U5 26-241); assay: FACS on CHO cells overexpressing GITR, PE-conjugated anti-human Fc detection
T1 construct: also called GITR on cell surface
T1 sequence: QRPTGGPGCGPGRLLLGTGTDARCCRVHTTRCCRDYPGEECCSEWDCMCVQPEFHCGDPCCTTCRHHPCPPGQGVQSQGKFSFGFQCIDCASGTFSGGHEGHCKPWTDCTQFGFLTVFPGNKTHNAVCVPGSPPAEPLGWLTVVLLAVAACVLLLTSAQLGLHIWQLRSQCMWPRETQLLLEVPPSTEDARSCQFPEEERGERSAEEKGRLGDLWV

[2] = molecular target: T2, human OX40-his (human, UniProt P43489 29-216); assay: ForteBio Octet BLI, antibody on AHC tip, human OX40-His 100 nM in solution, monovalent
T2 construct: Bought soluble protein
T2 sequence (looked up): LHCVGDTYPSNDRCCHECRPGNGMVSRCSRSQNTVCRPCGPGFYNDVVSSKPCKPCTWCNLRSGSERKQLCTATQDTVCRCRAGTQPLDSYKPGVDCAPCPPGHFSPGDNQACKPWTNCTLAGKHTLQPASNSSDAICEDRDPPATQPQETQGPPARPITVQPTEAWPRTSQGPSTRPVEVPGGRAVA
Procedure: A ForteBio affinity assay was performed according to the method reported in the literature (Estep, P, et al., High throughput solution Based measurement of antibody-antigen affinity and epitope binning MAbs, 2013, 5(2): p. 270-278). Briefly, the AHC sensor (Pall, Catalog No.: 1506091) was immersed in a SD buffer (PBS 1×, BSA 0.1%, Tween 20 0.05%) and equilibrated at room temperature, half an hour before the experiment. […] The anti-human IgG Fc biosensor AHC was immersed in each well containing the antibody solution, and immersed at room temperature for 600 s to load the samples. The sensor was then washed in the SD buffer until it returned to the baseline, and then immersed in a well containing 100 μL of the antigen solution to monitor the binding of the antibody to the antigen. The sensor was then transferred to a well containing 100 μL of the SD buffer to monitor the antibody dissociation. The rotation speed was 400 rpm and the temperature was 30° C. The background-corrected association and dissociation curves were fitted by the Octet analysis software (ForteBio) to generate the binding rate constant (kₒₙ) and dissociation rate constant (kdis), which are then used to calculate the equilibrium dissociation constant (KD).

[3] = molecular target: T3, human OX40 expressed on the surface of cells (CHO cells overexpressing human OX40) (human, UniProt P43489 29-277); assay: FACS on CHO-OX40 cells, PE anti-human Fc
T3 construct: whole, on cells; also called CHO-OX40 cells; CHO cells overexpressing OX40
T3 sequence (looked up): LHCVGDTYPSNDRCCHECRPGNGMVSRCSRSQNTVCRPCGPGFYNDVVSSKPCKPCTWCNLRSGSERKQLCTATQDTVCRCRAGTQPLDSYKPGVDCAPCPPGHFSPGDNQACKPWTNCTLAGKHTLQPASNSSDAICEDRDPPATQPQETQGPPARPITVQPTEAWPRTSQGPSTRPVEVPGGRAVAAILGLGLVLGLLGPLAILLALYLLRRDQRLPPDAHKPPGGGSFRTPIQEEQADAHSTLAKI

- binding result [1]: no binding
B1: IgG1 control antibody (antibody, V domains shown)
VH: EVRLLESGGGLVQPGGSLRLSCAASGFTFSNYAMGWVRQAPGKGLEWVSAISGSGGSTYYADSVKGRFTTSRDDSKNALYLQMNSLRAEDTAVYYCARGGPGWYAADVWGQGTTVTVSS
VL: DIQMTQSPSSLSASVGDRVTITCRASQSISSYLNWYQQKPGKAPKLLIYAASSLQSGVPSRFSGSGSGTDFTLTISSLQPEDFATYYCQQADLPAFAFGGGTKVEIKR
notes: Negative control; also called IgG1 negative control

- Kd [2]: 215 nM
- koff [2]: 0.029 s⁻¹
- kon [2]: 135000 M⁻¹ s⁻¹
- EC50 [3]: 2.19 nM
B2: anti-OX40 antibody ADI-20112 (antibody, human IgG1, kappa, V domains shown)
VH: QVQLVESGGGVVQPGRSLRLSCAASGFTFSSYGMHWVRQAPGKGLEWVAVISYDGSNKYYADSVKGRFTISRDNSKNTLYLQMNSLRAEDTAVYYCARGRPWYSETGTSAFDIWGQGTMVTVSS
VL: DIQMTQSPSSLSASVGDRVTITCQASQDISNYLNWYQQKPGKAPKLLIYDASNLETGVPSRFSGSGSGTDFTFTISSLQPEDIATYYCQQSDHYPTFGGGTKVEIKR
notes: also called parent anti-OX40 antibody
